A protein production outcome set (Wang et al. 2014)

Test: label from the status in PepcDB records

| Sequence | protein production |
| --- | --- |
| PDVSVQEMVSAYTTFVNKGIRVNPLPITRIEDQYGNVVAQFSPNMVEVLPPDAAYKMLYMLKSVVDGGTGSRLRYRYGFKLDMGGKTGTTQNNSD | failed |
| PEEQRQKLPDITAADPLEYKKQLLKLAISRIVFMRRFIADSLYYLPDVFFVTDKDNNIILLNKAAENLTAELGAQYHYRMPISTILNHLHNEEGHRINFDQVRNNEINSQCYAENGRAFDLRIAACRQVINQPDGWLIMLIDISAVKSAEEQRQRILHLLSHDMRSPQISILALIDRFSRTSC | failed |
| PFCAMENQVLVIRIKIPNSGAVDWTVHSGPQLLFRDVLDVIGQVLPEATTTAFEYEDEDGDRITVRSDEEMKAMLSYYYSTVMEQQVNGQLIEPLQIFPR | not failed |
| PGSTDFNGALILGLGIDLEKAVGWKNAFFEVEGLQYNGQPVNFAAGSVQGYNSIEAGPPLNRTELYQLWLNQTFLDNRLSFRVGKLIPSMNFGYVGRPFVTQTNPQLFTSTTGLIYTPVFVGPAMLGFIPGYYNSAFGLYGSWKSWGAPGDNPATPNGWYTQAGIYDGRGAQGVQTGLTWPNFSGALFSVAEVGGTWTPYADDPATGWGSVAVGGWRQSGPLTAPGGAFEAQTGGMYAYLVQKLGKFRDSEDQNGIVGFVQGGWNSSSTALMHSSLGFGLTFIAPFGDRPLDSYGFGFSWARLNANPLAGYGFNSYETMIQLYAQYHLVGNLFIQPVLTVLPTPGSGGAGAPSVSGTVQLTFPF | failed |
| PLGVSAAGALDRASLRRANRLVGNASSAAAIESVNGGLTVEAVGDQVIAVTGAPTTLTIESPSWVGSDDDDGGARPGGKRTVPMAAPFALLDGELLTLGAPESGFRNYVAIRGGVDAPEVLGSRSADTMSGIGPAPLAIRQVLATGEQTASTAVGAPELQPDFPGAGVTVLDVVPGPRADWFDQEALDSLCNQEWLVTPQSNRVGMRLDGKPLERTREGELPSEGTMAGALQIPPAGLPVLFLADHPITGGYPVIGVVRDEHLDRAAQVPIGGRIRFRLVPDSADFTTTTTKTPEK | not failed |
| PLSFSLLPATRDDIAMIVDRKRAQIARTHQYDVFACGWTVTLLERLVDASAEDFGLRTATLRAGGRVVAAELGLLSEGRYHLWLPIYDPEFARYSPGALMTLDTLEALAGLGVSRVDFGVDAD | failed |
| PNEKFCFEGFLPQKKGRMTKLKSLVDEHRTMVFYESPHRLLKTLTQFAEYFGPERQVSVSREISKIHEETVRGTLSELIEHFTATDPRGEIVIVLAGIDD | not failed |
| PPAAVGPWDDILAPLYRYTRARARELAETRETMQSMLAAAQALPDGVVTLNEDFQIDWANRMARRHLGLRLPADRGHNLLNLLRAPEFVAYAHRGHWPEPILVRLSLNGQERVMMIHLAGYAS | failed |
| PPEAYSLDTAIFVLETRDYRLSDVKEIDSYGDVEMKGKVAVFETEYGPVFLYVYKGEEAKKIWKKLNGRAGFVSIRSVLDLPNMGKFSTVSNGKKIVAWWRKNWLFIVEGKNGVEEFVKHVYRVYEEMKQ | not failed |
| PPLYVPEQLVVHKETHQAHVMIGSRGYNAYDDKRTALYLLNNILGGPGMNSRLNVSLRERRGLVYTVESNLTSYTDTGAFCIYFGTDPEDVDTCLKLTYKELKRMRDVKMTSSQLMAAKKQLIGQIGVASDNNENNALGMAKTFLHYNKYESSESVFRRIEALTAEGLLEVANEMFAEEYLSTLIY | failed |
| PQALEFEYMRWIATGARAFIDAHQDASKLRITHLGGGACTMARYFADVYPQSRNTVVELDAELARLSREWFDIPRAPRVKIRVDDARMVAESFTPASRDVIIRDVFAGAITPQNFTTVEFFEHCHRGLAPGGLYVANCGDHSDLRGAKSELAGMMEVFEHVAVIADPPMLKGRRYGNIILMGSDTEFF | failed |
| PQPKIGILLANLGTPDNYDYWSMRRYLNEFLSDKRVIDYPAWKWQPLLQILILSKRPFSSGANYKLIWNHDKGESPLMTITKDQTAAIAAEIRSLYGNRVMVDFCMRYGNPSTESRVRAMVEAGCEKILFFPLYPHYAGATSATANDEFFRAMMKEKRQPAVRTVPEYYDNPLYIDALAQSVERAYAQLDHRPDVLVASYHGMPKRYLMAGD | failed |
| PSHSLQAPEVRFSKEMECLQAMGFVNYNANLQALIATDGDTNAAIYKLKSSQGF | not failed |
| PTEFLYTSKIAAISWAATGGRQQRVYFQDLNGKIREAQRGGDNPWTGGSSQNVIGEAKLFSPLAAVTWKSAQGIQIRVYCVNKDNILSEFVYDGSKWITGQLGSVGVKVGSNSKLAALQWGGSESAPPNIRVYYQKSNGSGSSIHEYVWSGKWTAGASFGSTVPGTGIGATAIGPGRLRIYYQATDNKIREHCWDSNSWYVGGFSASASAGVSIAAISWGSTPNIRVYWQKGREELYEAAYGGSWNTPGQIKDASRPTPSLPDTFIAANSSGNIDISVFFQASGVSLQQWQWISGKGWSIGAVVPTGTPAGW | not failed |
| PTLYEKIQQANEEAVTRIIQSKPILVGFDKAINVMPDMTETTILHAGPPITYENMCGPMKGAVQGALVFEGLAKDLADADRVARSGAITFSPCHEHDAVGSMAGVTSPNMYVHIIKNETYGNTAFTNLSEQLAKVLRFGANDQSVVDRLIWMRDVLGPLLHDAMTFCPEGIDLRLMLSQALHMGDECHNRNVAGSTLLVQALTPYMVQTDFSREQLKEVFEFLGSSDYFSGPTWMGAAKCALDAGHNVENSTIVTTMCRNGVEFGIRVSGIGGNHWFTGPAQRVIGPMFAGYTQEDAGLDMGDSAITETYGVGGFAMAAAPAIVPLVGGTVAEALNYSKEMLEITTKENPNVTIPVLDFMGIPTGIDVLKVLETGMLPVINTAIAHKEPGIGMIGAGLTNPPANVFNEALKALVATIN | not failed |
| PTPKTELVQKFRVQYLGMLPVDRPVGMDTLNSAIENLMTSSSKEDWPSVNMNVADATVTVISEKNEEEVLVECRVRFLSFMGVGKDVHTFAFIMDTGNQRFECHVFWCEPNAANVSEAVQAACSGPSSGIEGRGSSGSSGSSGSSGDAAVTPEERHLSKMQQNGYENPTYKFFEQMQN | not failed |
| PVPGIRCRDAFSAASGIIDKMACVPELAVSEISAPRIVSSLAGDGHALFVANSMPARDMDLYAAPVAQKPLQVALNRGVSGIDGIISTAAGFSAGLGKPTTLLIGDISFLHDLNALCLLNHPWNPLIVIVLNNHGGSIFSFLPIASQTDRLDECFATPQNFSIESAARTFGIDYACPETNGDFTQLYAEALTTKKSLIIEIRSDREKNLLLHRSLKARLDPVFEKADC | failed |
| QAIHNDKSLLSPFSELNTDNRTKREESGSTFKEQKGGEFSKLLKQSINELNNTQEQSDKALADMATGQIKDLHQAAIAIGKAETSMKLMLEVRNKAISAYKELLRTQI | failed |

| Sequence | protein production |
| --- | --- |
| QAQITGRPEWIWLALGTALMGLGTLYFLVKGMGVSDPDAKKFYAITTLVPAIAFTMYLSMLLGYGLTMVPFGGEQNPIYWARYADWLFTTPLLLLDLALLVDADQGTILALVGADGIMIGTGLVGALTKVYSYRFVWWAISTAAMLYILYVLFFGFTSKAESMRPEVASTFKVLRNVTVVLWSAYPVVWLIGSEGAGIVPLNIETLLFMVLDVSAKVGFGLILLRSRAIFGEAEAPEPSAGDGAAATSD | failed |
| QDKKEQFKQLFQIVEQSFGRPLSPYEIETLNQWIDVDHHDLSVIQAALDEALSQNKLSFKYIDRILLNWKKNNV | not failed |
| QDVLRGTLNLYCSVTAAYSHLPQLLERFRQEHPFVEIALTTGDAANALAEIQQNRADIAIAALPDPFPATLHFAKIDDVPLSLIAPTMRCAVQQQISQTQIDWARVPFIIPDHGPGRRRADNWFKQMGISPNIYAQVSGQEAIASMVALG | failed |
| QESVEDSLATVKVVLIPVGQEIVIPFKVDTILKYLKDHFSHLLGIPHSVLQIRYSGKILKNNETLVQHGVKPQEIVQVEIFSTNPDLYPVRRIDGLTDVSQIITV | not failed |
| QGEEMNRSQEVTRDEESTRSEEVTREEMAAAGLTVTVTHSNEKHDLHVTSQQGSSEPVVQDLAQVVEEVIGVPQSFQKLIFKGKSLKEMETPLSALGIQDGCRVMLIGKKNSPQEEV | failed |
| QGHWFAIHSGTLGIMVNVDALGGLPVPQSWADLLKPEYKGMVGYLDPSSAFVGYVSAVAINQAMGGSLDNFGPAIDYFQKLAKNSPIVPKQTAYARALSGELPILVDYDFNAYRARYKDKANVAFVIPKEGTIGVPYVMSMVAKAPHRANAEKVLDFVLSDAGQALWAKAYLRPVR | failed |
| QHTEERELKKRLMNTARTVSEMTEVKEALARKKQTEAVRHAVEEIRMINEADYIVVMDMNHIRYTHPVSTSIGKKSEGADEEAAFAEHIYFSEAKGEIGTAVRAFYPVKDQDLNQIGVVLVGKTLPGIAD | failed |
| QIKIRKATKEDWEKIYQLYNSLSDEDLYLRFFHLYRITEEDAKKIASNEDHVTFLAEVDGKVVGEASLHKDGEFSLVVHRNYRTLGIGTLLVKTLIEEAKKSGLSTVKFYTLPENTPMIKIGRKLGFKMRFYEDEVYGEMRL | not failed |
| QKQYWVCNSSDASISYTYCDKMQYPISINVNPCIELKGSKGLLHIFYIPRRDLKQLYFNLYITVNTMNLPKRKEVICRGSDDDYSFCRALKGETVNTTISFSFKGIKFSKGKYKCVVEAISGSPEEMLFCLEFVILHQPNSN | failed |
| QKVKTIFPHTAGNNKTLLSFAQGDVLTLLIPEEKDGWLYGEHDTTKARGWFPSSYTKLL | not failed |
| QKYQALLANNVENTAKEALHQLAYTGREYNNIQDQIETISDLLGHSQSLYDYLREPSKANLTILENMWSSVARNQKLYKQIRFLDTSGTEKVRIKYDFKTSIAGPSLILRDKSAREYFKYAQSLDNEQISAWGIELERDKGELVYPLSPSLRILMPISVNDVRQGYLVLNVDIEYLSSLLNYSPVRDFHIELVKHKGFYIASPDESRLYGDIIPERSQFNFSNMYPDIWPRVVSEQAGYSYSGEHLIAFSSIKFVSNEPLHLIIDLSNEQLSKRATRDINDLIQES | not failed |
| QLLEPIRDFEARKCPVHGKTMELFCQTDQTCICYLCMFQEHKNHSTVTVEEAKAEKETE | not failed |
| QLSSVTDSKKKKTILDQIFVWEQNLEQFQMDLFRFRCYLASLQGGELPNPKRLLAFASRPTKVAMGRLGIFSVSSFHALVAARTGETGVRRRTQAM | failed |
| QNYWAVFDANKETLIVQTCSGLGLTAIDHLYPPHILPLDTDNETLGTTVLQALANSRTFVYDSPEDQDFFDTEKIRQRYEDWVAKLCGNLGYKTRRALFKNMMSVDIWLHNGCLKISPSRHVKLEAWNAIDADDVILSLDNSPEEIGAGLKLALSHC | failed |
| QPTIVLDTDYNIIAANTAYQRQFGVAGKPHVGAKCYRVSHQFAVPCDQAGEHCPMRKAHDSRVPERMLHIHHTPRGPEHVDVELRPIIGQDGTVVAYVERLSSVAVASVQPQQKG | failed |
| QQMETGDQRFGDLVFRQLAPNVWQHTSYLDMPGFGAVASNGLIVRDGGRVLVVDTAWTDDQTAQILNWIKQEINLPVALAVVTHAHQDKMGGMDALHAAGIATYANALSNQLAPQEGMVAAQHSLTFAANGWVEPATAPNFGPLKVFYPGPGHTSDNITVGIDGTDIAFGGCLIKDSKAKSLGNLGDADTEHYAASARAFGAAFPKASMIVMSHSAPDSRAAITHTARMADKLR | not failed |
| QQVTEPEETKETLQHLLDDTASGKMVQLTFVGESAEQPLITEMIRNFNVSVNILQGKISQTKDGAYGSLFIHIDGDEEEVQNVIRFINDKQVKAEVITNV | not failed |
| QVPKKQTTSKILVRNIPFQANQREIRELFSTFGELKTVRLPKKMTGTGAHRGFGFVDFITKQDAKKAFNALCHSTHLYGRRLVLEWADSEVTVQ | not failed |
